Assay results: CN110606891A

Biological target: 鼠CLDN18.2 (mCLDN18.2), claudin-18 isoform A2.1 [Mus musculus], NP_001181850.1 (mouse) (UniProt P56857)
Assay: cell ELISA on mCLDN18.2+ cells (Table 23), background

Sequence of UniProt P56857 (P56857 other isoform, or with tags, fused parts or gaps, form in doubt): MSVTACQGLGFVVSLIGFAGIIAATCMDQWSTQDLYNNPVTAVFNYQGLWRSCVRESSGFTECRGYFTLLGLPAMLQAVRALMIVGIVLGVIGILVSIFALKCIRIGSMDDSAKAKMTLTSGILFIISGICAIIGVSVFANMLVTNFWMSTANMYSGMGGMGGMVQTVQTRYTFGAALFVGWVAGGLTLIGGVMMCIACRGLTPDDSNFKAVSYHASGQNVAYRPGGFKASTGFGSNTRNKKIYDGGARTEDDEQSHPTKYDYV

Q: Neg IgG (和靶点没有结合的非特异性抗体) (antibody) was tested. Which Emax did it give?
A: 0.19
